{"source": "patent US5856125", "target": "T1, ERF (Homo sapiens) (UniProt P50548)", "T1 sequence": "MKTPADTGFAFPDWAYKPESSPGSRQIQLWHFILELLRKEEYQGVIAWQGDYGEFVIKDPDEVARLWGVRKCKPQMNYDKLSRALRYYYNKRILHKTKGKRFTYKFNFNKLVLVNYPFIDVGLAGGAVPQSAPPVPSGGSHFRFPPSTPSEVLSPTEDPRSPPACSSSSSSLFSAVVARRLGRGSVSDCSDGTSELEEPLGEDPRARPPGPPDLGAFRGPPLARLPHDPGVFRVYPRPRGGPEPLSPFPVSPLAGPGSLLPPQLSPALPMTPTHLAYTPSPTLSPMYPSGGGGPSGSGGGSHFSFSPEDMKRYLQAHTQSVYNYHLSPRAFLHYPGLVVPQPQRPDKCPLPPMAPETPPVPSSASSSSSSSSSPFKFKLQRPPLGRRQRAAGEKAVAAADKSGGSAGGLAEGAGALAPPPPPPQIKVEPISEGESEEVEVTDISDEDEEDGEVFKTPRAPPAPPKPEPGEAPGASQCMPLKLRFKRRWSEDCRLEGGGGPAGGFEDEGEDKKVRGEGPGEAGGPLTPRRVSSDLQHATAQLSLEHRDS", "test": "cell_activity", "details": "HeLa CAT reporter; values over 30 set to 30"}
{"substance": "ETS2 promoter -394 to +125", "values": [{"measurement": "activity (fold repression)", "value": "> 30"}]}
